We go through five molecules from patent publication US20230340089A1 (CITY OF HOPE, published 2023).

Test [1] concerns the target T1, Structural Maintenance of Chromosome-1A (SMC1A) (human, UniProt Q14683 1-1233).
T1 construct: whole, on cells; Endogenous antigen; It is on live or fixed cells in flow cytometry, LI-COR cell surface assay, ICC and immunogold EM, and in cell lysates in Western blot and immunoprecipitation; No recombinant SMC1A was used; also called SMC1A antigen; surface SMC1
T1 sequence (looked up): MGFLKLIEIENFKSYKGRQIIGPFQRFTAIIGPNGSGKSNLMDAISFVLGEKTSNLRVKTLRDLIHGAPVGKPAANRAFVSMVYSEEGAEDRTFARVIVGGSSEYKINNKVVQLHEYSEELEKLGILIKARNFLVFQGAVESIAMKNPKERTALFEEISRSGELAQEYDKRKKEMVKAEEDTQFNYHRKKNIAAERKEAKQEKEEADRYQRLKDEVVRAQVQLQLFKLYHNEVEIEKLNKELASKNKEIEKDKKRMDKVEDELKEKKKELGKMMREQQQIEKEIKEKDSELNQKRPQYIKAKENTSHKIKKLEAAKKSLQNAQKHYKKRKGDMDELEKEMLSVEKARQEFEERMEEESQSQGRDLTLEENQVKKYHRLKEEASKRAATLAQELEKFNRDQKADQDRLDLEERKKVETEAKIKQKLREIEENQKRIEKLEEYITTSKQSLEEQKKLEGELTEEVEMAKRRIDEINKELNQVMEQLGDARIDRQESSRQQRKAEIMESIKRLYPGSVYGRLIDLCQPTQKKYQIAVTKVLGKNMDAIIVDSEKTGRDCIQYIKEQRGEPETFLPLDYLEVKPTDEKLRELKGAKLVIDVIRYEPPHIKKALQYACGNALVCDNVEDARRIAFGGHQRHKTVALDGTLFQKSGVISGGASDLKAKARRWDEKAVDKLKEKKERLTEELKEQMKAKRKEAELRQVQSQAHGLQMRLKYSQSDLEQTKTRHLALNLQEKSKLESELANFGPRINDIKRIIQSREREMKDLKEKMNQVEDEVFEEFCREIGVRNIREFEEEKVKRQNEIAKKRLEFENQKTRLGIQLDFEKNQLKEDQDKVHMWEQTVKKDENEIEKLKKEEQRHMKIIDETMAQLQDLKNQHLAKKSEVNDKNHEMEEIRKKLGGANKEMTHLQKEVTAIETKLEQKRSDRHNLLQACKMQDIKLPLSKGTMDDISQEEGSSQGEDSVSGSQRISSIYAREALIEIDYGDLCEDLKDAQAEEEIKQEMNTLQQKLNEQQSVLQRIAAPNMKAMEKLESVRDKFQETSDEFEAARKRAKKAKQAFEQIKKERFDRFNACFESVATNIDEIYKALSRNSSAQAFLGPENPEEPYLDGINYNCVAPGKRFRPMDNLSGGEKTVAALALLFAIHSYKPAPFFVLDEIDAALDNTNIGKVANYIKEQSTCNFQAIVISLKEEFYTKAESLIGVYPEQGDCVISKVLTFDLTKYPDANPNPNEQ
The test can be described thus: LI-COR based cell surface assay on tumor cells.

For test [2], the target named is T1, Structural Maintenance of Chromosome-1A …. The test can be described thus: immunoprecipitation, then Western blot with the Bethyl anti-human SMC1A polyclonal antibody.
For test [3] the target is unchanged. The test can be described thus: Western blot of HCT116, HT29 and MDA-MB-231 lysates, 1 ug/ml. The method, then:
For each Westem blot, the cell lysates used as samples were from HCT116 cells (1), HT29 cells (2) and MDA-MB-231 cells (3). […] The secondary antibody used was an anti-human-HRP (dilution 1:3000) and incubated for 1 hour at room temperature with the overnight incubations.

B1: SMC1A1 (antibody, V domains shown)
VH: VTLKESGPGILQPSQTLSLTCSFSGFSLSTSGMGVGWIRQPSGKGLEWLAHIWWDDDQYSNTALRSGLTISKDTSKNQVFLKIASVDTSDTATYYCARVTTDAVDYWGQGTSVTVSS
VL: QIVLTQSPAIMSISPGERVTMTCSASSGLTYMYWYQQKPGSSPRLLIYDTSNLASGVPVRFSGSGSGTSYSLTISRMEAEDAATYYCQQWKSFPPTFGGGTKLEIKR
notes: also called SMC1A-ALPHA1
Regarding B1, in test [1], the binding result is reported as “binds”.

B2: chimeric SMC1A1 mAb (antibody, V domains shown)
VH: B1 VH
VL: B1 VL
notes: also called SMC1A-ALPHA1
In the case of B2, in test [2], the binding result is “binds”.

B3: SMC1A4-chimeric antibody (antibody, V domains shown)
VH: VQLQQSGAELVKPGASVKLSCTASGFNIKDPYMHWVKQRPEQGLEWIGWITPANGNTKYDPKFQAKATITADTYSNTAYLQFSSLTSEDTAVYFCARSGDAYYWAWFAYWGQGTLVTVSA
VL: DVLMTQTPLSLTVSLGDQASISCRSSQSIVHSNGNTYLEWYLQKPGQSPKLLIYKVSNRFSGVSDRFSGSGSGTDFTLKISRVEAEDLGVYYCFQGPLYTFGGGTKLEIKR
notes: Chimeric IgG detected with anti-human secondary antibodies; also called chimeric SMC1A4; SMC1A4 chimeric monoclonal antibody
With B3, the binding result in test [2] is “binds”.

B4: SMC1-Beta (antibody, V domains shown)
VH: EVKLQESGPELVKSGASVKIPCKASGYTFTDFNIEWVKQNRGKSLEWIGDINPSNGETIYNKKFKGKATLTVDKSSTTAFMELRSLTSEDTAVYYCARDHYYGYDYDAMDYWGQGTSVTVSS
VL: QIVLTQSPAIMSASPGEKVTMTCSASSSIGYMHWYQQKPGTSPKRWIYDRSKLASGVPARFSGSGSGTSFSLTISSMEAEDAATYYCHQRSRYPYTFGGGTKLEIKR
As for B4, the binding result in test [1] is on record as “binds”.

B5: meditope-enabled SMC1A4 (antibody, human IgG1, kappa, V domains shown)
VH: EVQLVESGGGLVQPGGSLRLSCAASGFNIKDPYMHWVRQSPGKGLEWIGWITPANGNTKYADSVKGRATISADTSKNTAYLQMNSLRAEDTAIYFCARSGDAYYWAWFAYWGQGTLVTVSS
VL: DVQMTQSPILLSASVGDRVTITCRSSQSIVHSNGNTYLEWYQQRTNGSPRLLIYKVSNRFSGVPSRFSGSGSGTDFTLTISSLQPEDIADYYCFQGPLYTFGAGTKVEIKR
notes: It was detected with anti-human secondary antibodies; also called SMC1A4-me; SMC1A4-ME
Take B5: in test [3], the binding result is “binds”.
